Test [1] concerns B-CLL cells from patients. As to the kind of experiment: PI3K and MEK inhibitors on CD40L signaling and survival in B-CLL cells. Format: cell-based, human. As for the experimental part: A PI3K inhibitor (LY294002; Sigma, St. Louis, Mo.) and MEK inhibitor (PD98595; Cell Signaling Technology, Beverly, Mass.) were used to dissect the pathways required for CLL cell survival. In these experiments, 1.0×10^6 B-CLL cells from patients were serum starved in 1% FBS containing media for 4 hours. Serum-starved cells were then pretreated with LY294002 (PI3K inhibitor, 30 μM) or PD98595 (MEK inhibitor, 10 μM). Cell lysates were then collected before and 20 minutes after CD40L stimulation. Western blot analysis with antibodies to p-IKK α/β, p-ERK, p-Akt was conducted, and equal loading was evaluated by probing antibodies to total ERK and β-actin.

Test [2] has as its system B-CLL cells. As to the kind of experiment: p38 MAPK signaling and survival in B-CLL cells, 24-hour experiment. Format: cell-based, human. As for the experimental part: In the 24-hour experiment, approximately 0.8×10^6 B-CLL cells per well were placed in full serum (10% FBS)-containing media for 24 hours. […] Western blot analysis with antibodies against specific proteins shown was conducted, and equal loading was evaluated by probing with antibodies against β-actin.

The test system of test [3] is B-CLL cells. The test is described as follows: p38 MAPK signaling in B-CLL cells, four-hour experiment. Format: cell-based, human. The settings on record: 4 hours; SB203580 30 and 60 μM, CHIR-12.12 10 μg/mL. As for the experimental part:
In the four-hour experiment, approximately 0.8×10^6 B-CLL cells per well were serum starved in 1% FBS-containing media for 4 hours. […] Cell lysates were collected before and 20 minutes after CD40L stimulation. Western blot analysis with antibodies against specific proteins shown were conducted, and equal loading was evaluated by probing with antibodies to total p38 (t-p38) and β-actin.

Another test has as its system KMS-12-BM tumor. As to the kind of experiment: Human KMS-12-BM subcutaneous xenograft model. Format: in vivo, SCID mice. The conditions noted are these: 1 mg/kg i.v. twice a week for two weeks (maximal tolerated dose); P>0.05. As for the experimental part:
Female SCID mice were treated with 3Gy irradiation one day prior to implantation of tumor cells. On the day of implantation, cells were prepared at a concentration of 5×10^7 cells/ml in 50% matrigel. Cells were implanted subcutaneously over the right flank at 5×10^6 cells/100 μl/mouse. […] Antibodies were administered intraperitoneally once a week for 4 weeks. Bortezomib was administered intravenously twice a week for two weeks.
(A xenograft is tissue or cells of one species grown in another, often human tumour cells in immunodeficient mice.)

Test [4] concerns IM-9 tumor cells (a human multiple myeloma cell line). The test is described as follows: IM-9 multiple myeloma subcutaneous xenograft model. In kind it is in vivo, SCID mice. As for the experimental part: SCID mice were inoculated subcutaneously with IM-9 tumor cells (a human multiple myeloma cell line expressing both CD40 and CD20) in 50% […]™ at 5×10^6 cells per mouse. […] Alternatively, bortezomib dosing at 1 mg/kg intravenously occurred on days 5, 8, 12, and 15 after tumor implantation. […] Antibody dosing occurred on days 8, 14, and 21 post tumor implantation, while bortezomib dosing occurred on days 8, 11, 14 and 18 post tumor implantation. […] Data were analyzed using the log-rank test.

Test [5] has as its system human lymphocytes from normal subjects. The test is described as follows: Proliferation of human lymphocytes. The conditions noted are these: antibody alone. Format: cell-based.
The target in a further test is cell-surface CD40 (Homo sapiens, UniProt P25942). As to the kind of experiment: Flow cytometric CD40-ligand binding blockade and displacement. The settings on record: flow cytometric assays / FACS. The source says:
(§1) 2, 2000, and PCT International Application No. PCT/US01/30857, also titled “Human Anti-CD40 Antibodies,” filed Oct. 2, 2001, both of which are herein incorporated by reference in their entirety.
(§2) 4, 2003, Nov. 26, 2003, and Apr. 27, 2004, and assigned U.S. Patent Application Nos. 60/517,337, 60/525,579, and 60/565,710, respectively, and International Patent Application No. PCT/US2004/037152, also entitled “Antagonist, Anti-CD40 Monoclonal Antibodies and Methods for Their Use,” filed Nov. 4, 2004; the contents of each of which are herein incorporated by reference in their entirety.
For orientation: A flow cytometer gives signals particle by particle.

In test [6] the test system is primary cancer cells from NHL patients. As to the kind of experiment: ADCC against primary cancer cells. In kind it is cell-based, human. The conditions noted are these: in vitro.
Text: as §2

Test [7] concerns B cells from normal human subjects. The test is described as follows: In vitro CD40 ligand-mediated proliferation of normal B cells. Format: cell-based.
Text: as §1, §2

Test [8] deals with cancer cells from NHL and CLL patients. As to the kind of experiment: In vitro CD40 ligand-mediated proliferation of patient cancer cells. Format: cell-based, human.
Text: as §2

In another test the target is soluble CD40 (Homo sapiens, UniProt P25942). As to the kind of experiment: ELISA-type binding to soluble CD40. The conditions noted are these: ELISA-type assays.
Text: as §1
Background: In an ELISA, binding on a coated surface is turned into a signal by an enzyme label.

Test [9] has as its system CD40-expressing target cells. The test is described as follows: ADCC activity of anti-CD40 antibodies (Table 1). Format: cell-based.
A further test has as its system normal B cells. As to the kind of experiment: CD40L-induced cytokine secretion from normal B cells (Meso Scale Discovery). The settings on record: 24 hours. Format: cell-based, human. As for the experimental part: (§3) Cells (1×10^5 cells per well) were cultured in a 96-well plate in the presence or absence of CD40L (CD40 transfected, formaldehyde fixed CHO cells, 2×10^5 per well). […] Production of hIL-6, hIL-8, hIL-10, hTNF-α, hGM-CSF, hIL-1b, hIL-12p70, MCP-1, and MIP-1β was measured by Meso Scale Discovery® multi-array system (Meso Scale Discovery, Gaithersburg, Md.).

In another test the test system is CLL cells. The test is described as follows: CD40L-induced cytokine secretion by CLL cells (Meso Scale Discovery). Format: cell-based, human. The conditions noted are these: CLL #1; 24 hours. As for the experimental part:
as §3

For test [10], the system named is B-CLL cells. As to the kind of experiment: CellTiter-Glo viability of CLL patient PBMCs. In kind it is cell-based, human. The settings on record: 72 hours, 2 μg/ml rhsCD40L + 4 μg/ml enhancer. As for the experimental part:
Cell viability was determined after 72 hours using the CellTiter-Glo® Luminescent Cell Viability Kit (Promega, Madison, Wis.), which measures cellular ATP, and expressed as Relative Luminescence Units (RLU). Percent blockade was calculated as follows: […]

The test system of test [11] is B-CLL cells. The test is described as follows: cPARP flow cytometry of CLL patient PBMCs. Format: cell-based, human. The settings on record: 24 hours. As for the experimental part: [formula] cPARP analysis by flow cytometry was performed after 24 hours in culture. Cells were treated with FACSLysis buffer (BD Biosciences) and frozen. After fixation in 1% formaldehyde for 45 min, cells were washed and incubated with PE-conjugated mouse anti-human CD19 for 30 min at room temperature (RT). Cells were then permeabilized using 70% ethanol on ice for 30 min and stained for 30 min at RT with rabbit anti-human cPARP antibody or isotype control rabbit IgG along with PerCP-Cy5.5-labeled mouse anti-human CD5. This was followed by incubation with goat anti-rabbit IgG-AlexaFluor 647 for 30 min at RT before fixing with 1% formaldehyde and analyzing by flow cytometry. Percent blockade was calculated as follows: […]

“Also recorded” adds a separate entry of the source.

This is an account of results in US8337851B2, “Methods of monitoring the efficacy of anti-CD40 antibodies in treating a subject for a CD40-expressing cancer” (Novartis AG, priority 2005, dated 2012).

cell-surface CD40, sequence (P25942 21-277): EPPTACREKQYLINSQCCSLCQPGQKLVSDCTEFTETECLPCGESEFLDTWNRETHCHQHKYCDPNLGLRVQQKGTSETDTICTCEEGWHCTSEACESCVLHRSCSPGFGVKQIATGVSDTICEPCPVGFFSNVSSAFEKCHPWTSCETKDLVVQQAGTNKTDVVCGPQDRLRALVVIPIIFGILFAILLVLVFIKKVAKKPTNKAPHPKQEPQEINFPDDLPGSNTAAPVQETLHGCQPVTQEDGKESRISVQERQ
soluble CD40, sequence (P25942 21-193 limits assumed): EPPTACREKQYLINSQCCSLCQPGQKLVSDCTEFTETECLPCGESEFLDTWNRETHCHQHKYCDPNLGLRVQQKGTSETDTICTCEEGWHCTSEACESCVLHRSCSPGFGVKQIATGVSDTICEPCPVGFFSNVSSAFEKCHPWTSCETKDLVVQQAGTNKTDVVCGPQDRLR

Regarding `COc1cccc(-c2cc(=O)c3ccccc3o2)c1N` [PD98595], the IKK/NFkB activation entry in test [1] (LY294002 30 μM or PD98595 10 μM) is “no change of IKK/NFkB activation”. Also, the “survival mediated by CD40L (cleaved PARP, caspase-3, Bcl-xl)” value in test [1] (LY294002 or PD98595, FIG. 9) is given as “no change of survival mediated by CD40L”. Moreover, in test [1] (PD98595 10 μM, 20 minutes after CD40L), the “activation of ERK induced by CD40L” value was “inhibited activation of ERK”.

As to `C[S+]([O-])c1ccc(-c2nc(-c3ccncc3)c(-c3ccc(F)cc3)[nH]2)cc1` (stereo not shown) [SB203580, reference compound], in the test on B-CLL cells [2] (CD40L), the “cleaved Caspase-3” value was “induced to a lesser extent” and the p38 phosphorylation result is “similarly blocked”. Besides, the cleaved-PARP entry with B-CLL cells [2] (SB203580 30 and 60 μM, CHIR-12.12 10 μg/mL, CD40L) is recorded as “significantly induced”. Besides, in the test on B-CLL cells [2] (especially 60 μM SB203580 and 10 μg/ml CHIR-12.12), the Bcl-xl expression result is reported as “blocked”. Further, the “p38 activation by CD40L” value in the test with B-CLL cells [3] is reported as “slightly inhibited”.

`CC(C)C[C@H](NC(=O)[C@H](Cc1ccccc1)NC(=O)c1cnccn1)B(O)O` [bortezomib, reference compound]: in the test with KMS-12-BM tumor, the tumor volume reduction came to 22%. The tumor growth result is “inhibited tumor growth at 15, 18, and 21 days post tumor implantation” in test [4] (first study, CHIR-12.12 1 and 10 mg/kg i.p. days 5, 12, 18, bortezomib 1 mg/kg i.v. days 5, 8, 12, 15); “did not display statistically significant growth inhibition” in [4] (second study, bortezomib 1 mg/kg i.v. days 8, 11, 14, 18).

For the molecule “CHIR-5.9: fully human anti-CD40 monoclonal antibody of the IgG1 isotype from hybridoma cell line 131.2F8.5.9 (ATCC PTA-5542)”, in [5], the “induction of lymphocyte proliferation (agonist activity)” value is on record as “do not induce strong proliferation of human lymphocytes from normal subjects”. In the test with cell-surface CD40, the “displacement of pre-bound CD40-ligand” value is recorded as “displace the pre-bound CD40-ligand; also recorded: can compete off CD40-ligand pre-bound to cell surface CD40” and the “prevention of CD40-ligand binding to cell-surface CD40” value is given as “prevent the binding of CD40-ligand to cell-surface CD40; also recorded: can prevent CD40-ligand binding”. In [6], the “killing of primary cancer cells by ADCC” value is given as “kill primary cancer cells from NHL patients by ADCC”. The “effect on proliferation of normal B cells” value in test [7] was “act as antagonist anti-CD40 antibodies; also recorded: inhibit in vitro CD40 ligand-mediated proliferation of normal B cells”. Also, the “effect on CD40 ligand-mediated proliferation of cancer cells” value in test [8] was “inhibiting in vitro CD40 ligand-mediated proliferation of cancer cells from NHL and CLL patients”. For the same molecule, the “binding to soluble CD40” value in the test with soluble CD40 is “bind soluble CD40”. Further, the “killing of CD40-expressing target cells by ADCC” value in [9] is “able to kill CD40-expressing target cells”.

B1: CD40L: CD40 ligand used as stimulus: transfected formaldehyde fixed CHO cells (Example 4) or recombinant human soluble CD40L (Example 7) (protein)
chain: MIETYNQTSPRSAATGLPISMKIFMYLLTVFLITQMIGSALFAVYLHRRLDKIEDERNLHEDFVFMKTIQRCNTGERSLSLLNCEEIKSQFEGFVKDIMLNKEETKKENSFEMQKGDQNPQIAAHVISEASSKTTSVLQWAEKGYYTMSNNLVTLENGKQLTVKRQGLYYIYAQVTFCSNREASSQAPFIASLCLKSPGRFERILLRAANTHSSAKPCGQQSIHLGGVFELQPGASVFVNVTDPSQVSHGTGFTSFGLLKL
As to B1, in the test with normal B cells (Donor 1), the MCP-1 secretion was 5.5 folds of induction over background, the MIP-1β secretion is 2.2 folds of induction over background, the hGM-CSF secretion result is given as “no induction” and the hIL-1b secretion entry is listed as “no induction”. Moreover, in the test with normal B cells (Donor 1), the hIL-6 secretion was 5.7 folds of induction over background, the hIL-8 secretion was 7.7 folds of induction over background, the hIL-10 secretion is listed as 3.6 folds of induction over background and the hIL-12p70 secretion result is recorded as “no induction”. Also, the hTNF-α secretion in the test on normal B cells (Donor 1) was 3.7 folds of induction over background. Also, in the test with normal B cells (Donor 2), the MIP-1β secretion was 2.6 folds of induction over background, the hIL-1b secretion entry is on record as “no induction”, the hIL-6 secretion is on record as 3.8 folds of induction over background and the hIL-8 secretion is recorded as 14.7 folds of induction over background. For the same molecule, the hTNF-α secretion with normal B cells (Donor 2) is recorded as 4.8 folds of induction over background. Besides, in the test with normal B cells (Donor 3), the MCP-1 secretion is reported as 1.7 folds of induction over background, the MIP-1β secretion is 17.8 folds of induction over background, the hGM-CSF secretion entry is listed as “no induction” and the hIL-1b secretion entry was “no induction”. Besides, in the test on normal B cells (Donor 3), the hIL-6 secretion is 20.5 folds of induction over background, the hIL-8 secretion was 49.3 folds of induction over background, the hIL-10 secretion is on record as 3.6 folds of induction over background and the hIL-12p70 secretion entry is recorded as “no induction”. The hTNF-α secretion in the test on normal B cells (Donor 3) was 22.8 folds of induction over background. Moreover, in the test on CLL cells, the MCP-1 secretion is 5.5 folds of induction over background, the MIP-1β secretion result is “no induction”, the hGM-CSF secretion is recorded as 7.6 folds of induction over background and the hIL-1b secretion result is given as “no induction”. Further, in the test on CLL cells, the hIL-6 secretion entry was “no induction”, the hIL-8 secretion was 4.0 folds of induction over background, the hIL-10 secretion is given as 9.2 folds of induction over background and the hTNF-α secretion is 3.3 folds of induction over background. Besides, the “samples in which CD40L promoted survival of B-CLL cells” value in the test on B-CLL cells [10] is reported as 7/7. In addition, the “samples in which CD40L promoted survival of B-CLL cells” value in the test with B-CLL cells [11] is listed as 6/7.
